According to the supplement of paper PMC9170038:

System: K4 kissing-loop RNA reporter
Assay: apparent KD of K4 kissing-loop reporter; higher = weaker reporter binding
Conditions: Eterna round: R107
Method: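 RNA-MaP round R107: designed RNA switches with theophylline, tryptophan, arginine or FMN aptamers are transcribed on-chip within common flanks. They are titrated with a labelled K4 kissing-loop RNA reporter in RNA-MaP buffer (100 mM Tris pH 7.5, 80 mM KCl, 4 mM MgCl2), without ligand or with the indicated ligand. Median apparent KD per design.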

[1] = input ligand: theophylline 20 uM
[2] = input ligand: tryptophan 2.4 mM
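Further: bound reporter read as fluorescence of individual clusters on recovered sequencing chips by microscopy, with normalized cluster intensities fitted with a binding model.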

| Sequence | apparent KD of K4 kissing-loop reporter (input ligand: FMN 200 uM) | apparent KD of K4 kissing-loop reporter (input ligand: arginine 13.2 mM) | apparent KD of K4 kissing-loop reporter (input ligand: none) | apparent KD of K4 kissing-loop reporter [1] | apparent KD of K4 kissing-loop reporter [2] |
| --- | --- | --- | --- | --- | --- |
| AGUGCACUGUCAGGAUAUAUACAGUGAUGUUGUGUAUGUCAGCAAGUCAAAGACUUGCUGUUCUGUGUAGAAGGGACUGUGUACA [Omei KL FMN B Exc A v3] | 911 nM | 457 nM | 450 nM | 467 nM | 426 nM |
| AGUGCCUGCCUUAGCCUUCCCAUCAACUUCCGAGGACCGGUACGGCCGCCACUCGGCCAUCGGGCUAGUGAUGUUACCUGGUGGA [theeternabot_sameState_KL_Trp_A_50] | 337 nM | 302 nM | 327 nM | 320 nM | 224 nM |
| AGUGUUAGGUUAGAUACCAGCCGUUCGUGAAUAAUCCUCGAACCGCCAGUGAUGUUGGCAGGCCCUUGGCAGCUAACAGAACAGA [Maxeusla] | 243 nM | 216 nM | 207 nM | 170 nM | 223 nM |
| AGUUCCUCUGUCGAUACCAGCUUCAGUUGGCGGCCAGUGAUGUUGGUAUCGCCGAUGCCAAGCCCUUGGCAGCGACAUGAGACCC [Lausso] | 188 nM | 187 nM | 169 nM | 111 nM | 197 nM |
| AUAAACUUGCAGUGAUGUUGCAAGUGAGACUAGGAUAUCAGGAAGCUGAGAAGGAGUCAUCUCCUUCAGACAUCACUAUGAAGGA [whbob_SS_FMNA__2th179] | 334 nM | 191 nM | 251 nM | 205 nM | 232 nM |
| AUAGAGAAGUGGCACCCUCACUAAAACAGUCGAGGACCGGUACGGCCGCCACUCGCGCGCUUUAGUGAUGUUAAAGAUGUGAAAA | 223 nM | 209 nM | 223 nM | 508 nM | 215 nM |
| AUCUAGAUGCGAAGGAGCGCCUCAACGCGCUAUCUAUGGAGUGAUGUUCCAACGUAUGAGAGGCAGGUAGGUCGCGCAUCUAGAA [Arg B Ex t1] | 129 nM | 113 nM | 132 nM | 117 nM | 115 nM |
| AUGCGCGUGCGAUGUAAAUCGCACGCGCAUCGAGGACCGGUACGGCCGCCACUCGCUCGCGCCGAGUGAUGUUCGGCCGGCGAAC [#2 Same State - Tryptophan A Attempt #5 (HarryS)] | 442 nM | 278 nM | 527 nM | 454 nM | 476 nM |
| AUGGUGGAUCAGUGAUGUUGGUGGAGUACGUAGGAUAUGAGUGAUGUUAGAAGGAUGGGAGUGAUGUUCCAGGUGGUUGUGUUGU [KL-SSFMN-A1] | 557 nM | 364 nM | 652 nM | 507 nM | 492 nM |
| AUUAACCUUUUAGCUAUAUUUUUAUGUGAUACCAGACAUGGCAUAGUCCCUUGGCAGCACAUUAUAUUUACGAGUGAUGUUCGAA [JR_SSTheophyA_Sub026] | 243 nM | 250 nM | 261 nM | 271 nM | 194 nM |
| AUUAAUUUCAGAGGAUAUCGUUAUUUUUUAUAUUUUAUUCAUUUAUGCAGUGAUGUUGCUAUUAAUCGAGAAGGCUGAUUUAUAA [JR_ExcFMNB_Sub003] | 85.5 nM | 114 nM | 47.1 nM | 120 nM | 49.4 nM |
| AUUAGGCGAAGUGAUGUUUCAUAUAAUGGCAAGGAUAUGUCCUUACACAGAAGGUGCUCUUAGUCAGGUUAUAUUAGGACUGCUA [theeternabot_exclusion_KL_FMN_A_42] | 446 nM | 434 nM | 460 nM | 474 nM | 340 nM |
| AUUAUAAAGGCGGCCGCCACUAGUGAUGUUAGUGACUUAUGUAUUAUCAUAAGAAUAAAAUAAAAUAGGACCGGGCCAAAAUAUU [AstrosExTryB#3] | 527 nM | 384 nM | 452 nM | 448 nM | 483 nM |
| AUUCAUGAGUGAUGUUCAUCGGCAGGAGAUACCAGCGAGUUAACCCGCCCUUGGCAGCUCAAGUAUAGGGACUCUGGCAUCGCCU [theeternabot_exclusion_KL_Theo_A_18] | 406 nM | 374 nM | 547 nM | 405 nM | 369 nM |
| AUUCAUUUCAGAGGAUAUCGCUGGAGAGUGAUGUUCUCCCAUAGUCAGUGAUGUUGGCUAGCUAUGCGAGAAGGCUGUGGGUGGA [Same State FMN B GF 28] | 143 nM | 396 nM | 397 nM | 356 nM | 384 nM |
| AUUCGAUCAGUGAUGUUGAUCAAAGUCGAAGGAGCGGACGAAAGUCCAGGUAGGUCGCGACUACAAGGUGUUAAGACACCUCGAA [Spvincent t9 mod #OpenEnded] | 246 nM | 211 nM | 237 nM | 208 nM | 224 nM |
| AUUCUAUUGUGAAGGAGCGCGUAUAGUAGUGAUGUUACUAUAAUGAUAGAUACUUAAUUCUCGCAGGUAGGUCGCACAAUAUAUA [JR_Nu_ExcArginiB_Sub024] | 117 nM | 77.5 nM | 98.8 nM | 85 nM | 89.8 nM |
| AUUUAGACGAGUGAUGUUCGUGUUAUUACAGAGGAUAUGCGUGAUUGCAGAAGGCUGUAUUUAUAUAUGUUAUGUGGUUUUAAAA [whbob_Ex_FMNA__2th186] | 79.7 nM | 102 nM | 90.7 nM | 102 nM | 69.9 nM |
| CAGUUCUAUUCCGGUAGUGAUGUUACCAAGCGAGGACCGGUACGGCCGCCACUCGAGUGACAGACGUACUGGUAUCACCCGCUUC | 159 nM | 172 nM | 164 nM | 186 nM | 142 nM |
| CAUACGCAUGGAGGAUAUGAGAUUACUCAUAUCAUUUAAUAUUCUCAGUGAUGUUGAGAUUUAAACUCAGAAGGCCAUGUGUAUG [Ex FMN B 12] | 262 nM | 331 nM | 358 nM | 356 nM | 380 nM |
| CAUACGCAUGGAGGAUAUGGGAUUACUCAUAUUACCCUGUAACAGGUAUCUCAGUGAUGUUGAGACUCAGAAGGCCAUGUGUAUG [Ex FMN B 23] | 615 nM | 289 nM | 348 nM | 370 nM | 344 nM |
| CAUAGACAAGUGAUGUUUGUCAUAACCGAAGGAGCGUCUUUAAAGACAGGUAGGUCGCGGAUUAGUUAAGUUAUGAUUCUUUAUG [#19 K4 Arginine A Same State] | 602 nM | 492 nM | 704 nM | 659 nM | 453 nM |

| Sequence | apparent KD of K4 kissing-loop reporter (input ligand: FMN 200 uM) | apparent KD of K4 kissing-loop reporter (input ligand: arginine 13.2 mM) | apparent KD of K4 kissing-loop reporter (input ligand: none) | apparent KD of K4 kissing-loop reporter [1] | apparent KD of K4 kissing-loop reporter [2] |
| --- | --- | --- | --- | --- | --- |
| CAUAGGAAACUAUGUUUCUCUCUUACUGAAGGAGCGCGUGAAAACGCAGGUAGGUCGCAGAAUUUAAAAGAGAGUGAUGUUCUCA [Ex Arginine A K4 11] | 431 nM | 374 nM | 598 nM | 572 nM | 446 nM |
| CAUAUCAGAUAAGGAUAUAUGGCUCCUCGAGUCCAGUGAUGUUGGGCAACGUUUCAGUGGUGGAUUAUAGAAGGUAUUCACAGAC [theeternabot_sameState_KL_FMN_B_9] | 297 nM | 250 nM | 276 nM | 272 nM | 258 nM |
| CAUGGAGUGAUGCUCCAUGAUCGGGCUUGGCAGGAUAUGGGAUCUUCCAGAAGGGCCGAUCCCAGCGAGUGAUGUUCGCUGGUCU [Exclusion FMN A GF 27] | 119 nM | 107 nM | 113 nM | 116 nM | 108 nM |
| CCAUCGCUAUUCGAUACCAGUCAUCACAUCUUUGGUGUGAUAAAGGAGUGAUGUUCCCAAGACCCUUGGCAGCGAAUAGUGAUGG [Theophylline B K4 11] | 293 nM | 222 nM | 270 nM | 172 nM | 250 nM |
| CCAUCGCUAUUCGAUACCAGUCUUUUUUAUUUAUAAAAUCUGCAAAGGAGUGAUGUUCCAGACCCUUGGCAGCGAAUAGUGAUGG [Theophylline B K4 3] | 401 nM | 441 nM | 464 nM | 570 nM | 459 nM |
| CCAUUCUUUUACGAUACCAGUUUAAUAUAUUUAUUCAUAACCCUUGCCGAGUGAUGUUCGGACCCUUGGCAGCGUUUGCGAGAGG [lliltkmullin] | 303 nM | 308 nM | 392 nM | 404 nM | 239 nM |
| CCCGGGUCGUCAGGAUAUGAGUGCAGUGAUGUUGCACGGGUCUUUGCAGGCCCUGGUGAGGCGUACUCAGAAGGGACGCCAGGUC [Atazazaed] | 250 nM | 124 nM | 145 nM | 130 nM | 133 nM |
| CCCGUGGGUUCGAGAGGGCUUGUGGGAAGUAAGGAUAUUUAGGGAGAAAGAAGGUACUAUAGAAUAUAGUGAUGUUAUAUAUGGG [#07 K4 FMN A Same State] | 402 nM | 435 nM | 454 nM | 347 nM | 203 nM |
| CCCUCACGAGUGAUGUUCGUAGGGUACAGUCAGGAUAUCAUGCGGUUGAGAAGGGACAGAGAGGGCGGCGGCGGGUUGCUCAUCG [Rabele] | 150 nM | 125 nM | 153 nM | 166 nM | 124 nM |
| CCGAAGAACCAGUGAUGUUGGUUGACUAGACAGGAUAUGAGCAACAUCAGAAGGGUCUGGCUUCGGGAGUGGGCCGCGCUGACCU [Artilati] | 324 nM | 193 nM | 240 nM | 1210 nM | 395 nM |
| CCGAUGGGUACAGGAUAUGCCAGUGAUGUUGGUUUAGAUGGACCCAUAAGGAGACACCAGACGGAGGCAGAAGGGUAGCAAGGGA [Isonanti] | 127 nM | 110 nM | 101 nM | 118 nM | 120 nM |
| CCGGGCGGCUGAAGGAGCGGGCGGGCCCGAGUGAUGUUCGGGUGGGCCGUGAGGUCCGGUGCCCAGGUAGGUCGCGGUUCCGCCC [#2 Same State - Arginine B Attempt #10 (HarryS)] | 200 nM | 169 nM | 262 nM | 215 nM | 164 nM |
| CCGUAGCGAUCGGCCGCCACUCAAGAUCGCCAACUAUCACACGGUUCUCCCGAGUGAUGUUCUAGGAGGACCGGGAUUGUUGCUC [theeternabot_exclusion_KL_Trp_B_13] | 421 nM | 322 nM | 378 nM | 374 nM | 388 nM |
| CCUAUCUCAUACGAUACCAGUCUACGAUAUUUUAUCGUUGCCAACACCGAGUGAUGUUCGGACCCUUGGCAGCGUAUGGGAUAGG [#03 K4 Theophylline B Exclusion] | 159 nM | 129 nM | 143 nM | 138 nM | 136 nM |
| CCUAUCUCAUACGAUACCAGUCUAUUGUUACGAGUGAUGUUCGAAUAUUUGCCAUUCAAUGACCCUUGGCAGCGUAUGGGAUAGG [Ex Theophylline B K4 10] | 502 nM | 519 nM | 525 nM | 548 nM | 486 nM |
| CCUCACGUAGGACUAGUGAUGUUAGACUACCGAGGACCGGUACGGCCGCCACUCGUCGUACAAGAUAACCUUCCGCCAGUAUACG | 110 nM | 85.1 nM | 98.9 nM | 88.4 nM | 140 nM |
| CGAGUGAUGUUCGUUUUUUACUCUGUUUGACAGGAUAUGCGGAAACGCAGAAGGGUCACCUUUGAGUUAAACGGAGUUAUUUUUU [Ex FMN A 20] | 419 nM | 296 nM | 366 nM | 306 nM | 320 nM |
| CGAUACGGAAAUACGUGUCUCUAUUCAGAAGGAGCGUGGUAGUACACAGGUAGGUCGCUGAAAUUUAAACUAGUGAUGUUAGACU [JR_SSArginiA_Sub004] | 1330 nM | 742 nM | 1190 nM | 884 nM | 905 nM |
| CGCAAGCAGCUAGUGAUGUUGGCCGCCUUGCGAGGACCGGUACGGCCGCCACUCGGAGGCGGCUACUGAUAAACCGUCUAACGGA [KL-XTryp-A10] | 87.5 nM | 67.2 nM | 84.3 nM | 70.6 nM | 224 nM |
| CGCAGUGAUGUUGCGAGUAGCUACAGGGAAGGAGCGUGCUAGAGCACAGGUAGGUCGCCCAGUGGCAGUGAUGUUGCCAAAGGGU [Exclusion ARginine A GF 17] | 126 nM | 119 nM | 118 nM | 126 nM | 116 nM |
| CGCCGCAAGGCGAGCGCUCCCACUCCGGAAGGAGCGCCCGAAAGGGCAGGUAGGUCGCCGGAGUGAUGUUCCGGUGGAGGGCUCG [#2 Exclusion - Arginine A Attempt #27 (Inspired by Omei)] | 379 nM | 185 nM | 432 nM | 360 nM | 529 nM |
